In the RNAGym collection of RNA variant scans (doi:10.1021/acssynbio.7b00057):

B1: Pistol ribozyme (parent)
chain: GGGUCGUUGUUCCAUAAUCGCGUGGAUAUGGCACGCAAGUUUCUACCGGGCACCGUAAAUGUCCGACUGGAGCCGUUCGGGCGGCUAUAAACAGACCUCAGGCCCGAAGCGUGGCGGCACCUGCCGCCGGUGGUAAAAAAGAUCGGAAGAGCACACGUCU

Variants of: B1
Test: aptazyme ON/OFF ratio, guanine; higher = stronger switching; co-transcriptional cleavage with and without guanine

Variant | aptazyme ON/OFF ratio
U7G G9A U11C C12G C13G | 1.07
U7G G9C | 2.85
U7G G9A | 4.35
U7G G9A U10G U11G C13G | 1.09
U7G G9A U10G U11G C13U | 1.14
U7G G9A U10G U11G C13A | 1.05
U7G G9A U10G U11C C12U C13A | 1.08
U7G G9A U10G U11C C12U C13G | 1.08
U7G G9A U10G U11C C12U C13U | 1.09
U7G G9A U10G U11G C12U C13U | 1.1
U7G G9A U10G U11G C12U C13A | 1.09
U7G G9A U10G U11G C12U C13G | 1.12
U7G G9A U10G C12G C13G | 1.12
U7G G9A U10G C12G C13A | 1.1
U7G G9A U10G C12G C13U | 1.07
U7G G9A U11G C12A C13A | 1.06
U7G G9A U11G C12A C13G | 1.07
U7G G9A U11G C12A C13U | 1.07
U7G G9A U11A | 2.46
U7G G9A U11G | 1.64
U7G G9A U11C | 1.17
U7G G9C U10A U11A C12A C13A | 1.36
U7G G9C U10A U11A C12A C13U | 1.29
U7G G9C U10A U11A C12A C13G | 1.15

Variant | aptazyme ON/OFF ratio
U7G G9A U10A U11G C12G | 1.13
U7G G9A U10A U11G C12U | 1.24
U7G G9A U10A U11G C12A | 1.13
U7G G9A C12G | 1.2
U7G G9A C12U | 1.41
U7G G9A C12A | 1.25
U7G G9A U10C U11A C12A C13A | 1.11
U7G G9A U10C U11A C12A C13U | 1.09
U7G G9A U10C U11A C12A C13G | 1.09
U7G G9A U10A U11G C12U C13A | 1.07
U7G G9A U10A U11G C12U C13U | 1.11
U7G G9A U10A U11G C12U C13G | 1.09
U7G G9A U10A U11C C12U C13G | 1.15
U7G G9A U10A U11C C12U C13U | 1.2
U7G G9A U10A U11C C12U C13A | 1.15
U7G G9C U10A U11A C12G C13U | 1.27
U7G G9C U10A U11A C12G C13G | 1.15
U7G G9C U10A U11A C12G C13A | 1.14
U7G G9A U10A U11A C12U | 1.2
U7G G9A U10A U11A C12G | 1.2
U7G G9A U10A U11A C12A | 1.1
U7G G9A U10C U11G C12G C13G | 1.06
U7G G9A U10C U11G C12G C13U | 1.06
U7G G9A U10C U11G C12G C13A | 1.09

Variant | aptazyme ON/OFF ratio
U7G G9A U10C C13A | 1.11
U7G G9A U10C C13G | 1.08
U7G G9A U10C C13U | 1.44
U7G G9A U11C C12U C13U | 1.3
U7G G9A U11C C12U C13G | 1.19
U7G G9A U11C C12U C13A | 1.15
U7G C12A C13U | 1.21
U7G C12A C13G | 1.11
U7G C12A C13A | 1.22
U7G G9A U10C U11A C12U C13G | 1.05
U7G G9A U10C U11A C12U C13U | 1.04
U7G G9A U10C U11A C12U C13A | 1.11
U7G C12U | 1.39
U7G C12A | 1.14
U7G C12G | 1.25
U7G G9A U10C U11A C13U | 1.19
U7G G9A U10C U11A C13A | 1.17
U7G G9A U10C U11A C13G | 1.09
U7G G9A C12U C13A | 1.14
U7G G9A C12U C13U | 1.18
U7G G9A C12U C13G | 1.15
U7G G9A U10A C12U C13U | 1.22
U7G G9A U10A C12U C13G | 1.24
U7G G9A U10A C12U C13A | 1.14

Variant | aptazyme ON/OFF ratio
U7G G9A U10A U11G C12G C13A | 1.09
U7G G9A U10A U11G C12G C13U | 1.22
U7G G9A U10A U11G C12G C13G | 1.14
U7G G9C U10A U11C C12A C13G | 1.23
U7G G9C U10A U11C C12A C13A | 1.34
U7G G9C U10A U11C C12A C13U | 1.36
U7G G9A U10A U11G C12A C13A | 1.05
U7G G9A U10A U11G C12A C13G | 1.08
U7G G9A U10A U11G C12A C13U | 1.12
U7G G9A U10A U11A C12G C13U | 1.12
U7G G9A U10A U11A C12G C13G | 1.19
U7G G9A U10A U11A C12G C13A | 1.1
U7G G9A U10A | 3.3
U7G G9A U10G | 1.19
U7G G9A U10C | 3.35
U7G G9C U10A U11A | 2.95
U7G G9C U10A U11C | 1.17
U7G C12G C13A | 1.08
U7G C12G C13U | 1.17
U7G C12G C13G | 1.14
U7G G9C U10A C12A C13A | 1.2
U7G G9C U10A C12A C13G | 1.09
U7G G9C U10A C12A C13U | 1.2
U7G G9A U10A C12G C13U | 1.25

Variant | aptazyme ON/OFF ratio
U7G G9A U10A C12G C13A | 1.09
U7G G9A U10A C12G C13G | 1.12
U7G G9A U10C C12A C13G | 1.13
U7G G9A U10C C12A C13U | 1.15
U7G G9A U10C C12A C13A | 1.14
U7G G9C C12G C13G | 1.26
U7G G9C C12G C13U | 1.43
U7G G9C C12G C13A | 1.3
U7G G9A C12A C13G | 1.15
U7G G9A C12A C13U | 1.13
U7G G9A C12A C13A | 1.09
U7G G9A U10G C13G | 1.13
U7G G9A U10G C13U | 1.12
U7G G9A U10G C13A | 1.11
U7G G9A U10C U11C C12A | 1.26
U7G G9A U10C U11C C12G | 1.17
U7G G9A U10C U11C C12U | 1.07
U7G G9A U10C U11G C12A | 1.09
U7G G9A U10C U11G C12G | 1.15
U7G G9A U10C U11G C12U | 1.19
U7G G9C U10A U11A C12U | 1.65
U7G G9C U10A U11A C12A | 1.46
U7G G9C U10A U11A C12G | 1.7
U7G G9C U10A U11A C13A | 1.31

Variant | aptazyme ON/OFF ratio
U7G G9C U10A U11A C13U | 1.45
U7G G9C U10A U11A C13G | 1.11
U7G G9A U10G U11C | 1.04
U7G G9A U10G U11A | 1.05
U7G G9A U10G U11G | 1.09
U7G G9A U10A U11A C12A C13U | 1.11
U7G G9A U10A U11A C12A C13G | 1.13
U7G G9A U10A U11A C12A C13A | 1.07
U7G G9A U10A U11C C12G C13G | 1.1
U7G G9A U10A U11C C12G C13A | 1.1
U7G G9A U10A U11C C12G C13U | 1.18
U7G G9A U10G U11G C12A C13G | 1.09
U7G G9A U10G U11G C12A C13A | 1.03
U7G G9A U10G U11G C12A C13U | 1.1
U7G C12U C13U | 1.36
U7G C12U C13G | 1.21
U7G C12U C13A | 1.21
U7G G9C U10A C12A | 1.43
U7G G9C U10A C12G | 1.4
U7G G9C U10A C12U | 1.18
U7G G9C C12A C13U | 1.34
U7G G9C C12A C13A | 1.42
U7G G9C C12A C13G | 1.33
U7G G9A U10A C12U | 1.31

Variant | aptazyme ON/OFF ratio
U7G G9A U10A C12A | 1.2
U7G G9A U10A C12G | 1.18
U7G G9A U10G U11A C12A C13A | 1.06
U7G G9A U10G U11A C12A C13G | 1.05
U7G G9A U10G U11A C12A C13U | 1.09
U7G G9A U10C U11A C12G C13U | 1.12
U7G G9A U10C U11A C12G C13A | 1.11
U7G G9A U10C U11A C12G C13G | 1.07
U7G G9A U10G C12U | 1.14
U7G G9A U10G C12A | 1.09
U7G G9A U10G C12G | 1.09
U7C U11G C13G | 1.03
U7C U11G C13A | 1.06
U7C U11G C13U | 1.03
U7G G9C U10A U11C C12G C13G | 1.06
U7G G9C U10A U11C C12G C13A | 1.16
U7G G9C U10A U11C C12G C13U | 1.29
U7G G9A U10C U11C C13U | 1.02
U7G G9A U10C U11C C13A | 1.04
U7G G9A U10C U11C C13G | 1.03
U7G G9A U11G C12U C13G | 1.11
U7G G9A U11G C12U C13A | 1.09
U7G G9A U11G C12U C13U | 1.2
